From publication PMC6220335, “Molecular structure of promoter-bound yeast TFIID” (Nature Communications, 2018)

B1: Taf12, subunit of Komagataella phaffii TFIID (natural protein, UniProt F2QSK7 1-609, looked up)
chain: MNQPPNQPQDNDSQVSSSGMQGGNSMNYSSSAPVNGAGQGPQPQQNSQGQNGKKPVGMQQAQIQLLARRYQLEMQKAHQLGPQTPQGAEHLQTATKIKHVLLSYQQQRQRQQGQVQGQGLSQPQGQNQAQGRVQQQTQGLSPDPGSHQGSPQFQQPHQVMMGSAQTAGTSIANPQAQSNISSQVSQMAAAKVNSASPPIPPKTVGTPTGTPVGTQPRGQVTIQQFQQVKSILEEFEKKLRTIEAAKRDQNLPEETLQKLLRQEAILKQRYAQTKATAYQMSQHLQRQQQALRAASAESAEVYVTGSASSPNMNVYNQQILTQQPQQQLQQQQLHQPQPQQPQPARQSPHLLIHQQQQQQQQQQQQQQQQQQHPVTHRPSNVSQTMPQPSQPLQSSTPSSAVGRNQSPGATPVTSVNAAAKPSPGTSSTSTLINQHILKPAPPPTEIPARLQVKPPQPAAMKIPNRPTLLGGSAISQPSLTTPVSIRPPPLEMEGDHVLQKRKLKELLRNVGADEGDGETVIDGDVEELLLDLADEFVTSVTSFACRLAKHRKVDNIDMRDVQLHLERNWNIRVPGYASDEIRSVRKFQPTAGYNQKVQGVAISKSVNKN
notes: Taf12, TFIID subunit of the yeast Komagataella phaffii (formerly Pichia pastoris); histone-fold domain modelled in the cryo-EM map; source: endogenous, K. phaffii nuclear extract; co-purified in TFIID by SBP-tagged Taf2 (streptavidin beads, sucrose gradient)
B2: Taf8, subunit of Komagataella phaffii TFIID (natural protein, UniProt F2QT15 1-517, looked up)
chain: MADKSDDNQSLVSVSSASSGKENPNSVGQRSMNPTLSHEEQHDQEVQERYNTGKDLNITSQPECVPAMEVALKASVLLILSSLGVQASSLSIDHLTYITTKYIDRLVSELHRSTEIQRRRTIAKRDVQLVVDRGILDLEDVTLEYERLKLTRKRVKPSIEKLSKYASELKESASSVQVSENDKDAFFFFDIAEKISEFMPLRMKRKNYIPKWMPVLPPEHTYVATPQFTEVISDPKELREQLTAESRLGEKALQHLIGTKIVEDKKEDVGNENDNDIDKEIHHGEIDVESDHNLEKGPNGETNGVQSQPPKSMVSSKRFDIVAHAKHRLSVLEKRKRHQEQLLENRRKEIDGLVGQYLGYYATKKIEPPVSDIIVNIMNTEYYHVSREISKSEHRKQKIQESQQLKRRKLEDELQQELEHQTEDIDFEFNFDEDDVDMNKNLNENLNENENDDEQVLIEEDTSFDITNGDIEKTNQETPFTNGSSKQWDSNNAILDSTNSEPEPEPPIADLFNVDSS
notes: Taf8, TFIID subunit of the yeast Komagataella phaffii (formerly Pichia pastoris); putative helices placed in the cryo-EM map; also called KpTaf8; source: endogenous, K. phaffii nuclear extract; co-purified in TFIID by SBP-tagged Taf2 (streptavidin beads, sucrose gradient)
B3: Taf4, subunit of Komagataella phaffii TFIID (natural protein, UniProt F2QWX2 1-411, looked up)
chain: MSSTPDGSTPVDSGKRTSDQIDVGEYKRVKVERGNRSETVDSGLIDMSNSVGASLDIPTPDQLNPTNTGVQTPSLHQPGESISAHSLSLPGETSVGGSTGISRENTPQVRPDVSVSQSSSQLHQRNESFPGLSVSKSTTSLNKDTMFDNRKRLLGNNGANPNGQKSSDPEKLSDALTAAGVDLKEEESLLSQSTVIQQSRRQLSTLSSFLHPVHLATFMRRVMENNGLRNYVDHDTELLSYMSSACEGFMAGILTDSVILANHRKRPIKSKLKHSTTPRSDVSKVLRDIATKQKEREEQRVQKRVTLDIEGQEDDGKSKQDNEEVLHRAANATAMMMTSKSKKKKYSWMNADSGAQGGKTNSVLARGDSGIRYRDAREEPGLVLRDLLGALEGRRMCVANTVVKGYARMND
notes: Taf4, TFIID subunit of the yeast Komagataella phaffii (formerly Pichia pastoris); histone-fold domain modelled in the cryo-EM map; source: endogenous, K. phaffii nuclear extract; co-purified in TFIID by SBP-tagged Taf2 (streptavidin beads, sucrose gradient)
B4: Taf1 (TBP-associated factor 1), subunit of Komagataella phaffii TFIID (natural protein, UniProt F2QMX2 1-1010, looked up)
chain: MDVDFDNALNGQVGGFDQFFDGTTKHADNAIDFSDEEELADEEVGDAPQRRTDVDDEHKPPEGTYEMNLSGSEKEDLLFKNLEREASEGTELPLPTIGGLKVPNFDNNIGLNETISERNECNQISNSHFVKHLEKTMIRTQMLKYYYPSFQKSKPISFSSLFPPPLASFQLYDGRDCTPLLPLKALQEVDPDEKKIFKSSFSAHQSKGDKRSQSVKHIELMELESNNTQIPPRKQKETLKHLDRNIVLSTLSWDDTELLSDKLEERHNRNRTKPNFQQMQYDDWDVDTDMILEGTLDTSRLNLKLDMNDPHLLFLNQKHKPSPAGKMNARFPMNSKSFEMKFNISNDMQYQMLKDNYQSKIRSTIGNLSIDHSIPATILQTPFYKVKLSKQELRRFHRPVFNSRPNSTILFSKIKTRKKKKDRGKETKELFKKSVDLTLGDSASFFLLEYSEEQPVALSNFGMGSKLINYYRKLNDDDNSRPKLPVGETHVLGVQDRSPFWNFGFVEPGNLVPTFYNNMVRAPIFRHEPEETDFLLIRSSGGGISPRYFLRSLDHVFTVGQTFPVVDVPGPHSRKVTSTSKNRLKMIVYRVLNKNERHRLVVKDISIHFPDQNDMQNRQRLKEFMEYQKNGEDHGFWKIKGNEILPGFKEIQQMIQPEDIALLEAMQFGQLNLEDYDSLREETLIGQTTATTEEALQVQMAPWSTTKNFIQATQGKAMLQVHGIGDPSKKGEAISFLRISMKGGFKSSMEDIVEKAEQMDNKKSQGHSYNVAVQQKMYDEEISRVWYAQQRALSKTSDMMERELGPTEAPTASSVYDDQNQITEMAKTLEEFVLSPLQTTVSSVKPASIKEKKHMKITRMVRDQNGILQRRTQLVTDQKVIAAYIQRKQEQEKAEIDAEKISFTNDEEQNRRAKKILEEELERLEKSKERRIARKKLKEGLPVVSSLSNTDSDARLSGKGIGKGKSTSRRCATCGALGHIRTNKACPMYYSAMNKSNPNMSDLPVYDIQY
notes: Taf1, TFIID subunit of the yeast Komagataella phaffii (formerly Pichia pastoris); native subunit of the purified complex; also called KpTaf1; source: endogenous, K. phaffii nuclear extract; co-purified in TFIID by SBP-tagged Taf2 (streptavidin beads, sucrose gradient)
B5: Taf6, subunit of Komagataella phaffii TFIID (natural protein, UniProt F2QMA7 1-485, looked up)
chain: MSKNSQRSSIPTSHTLWSPSDTVKDAAESLGIFNLNEEAAKNLAMDIEYRIHEILDQASKFMRHGKRRTLHTSDIDRALKVLNLEPLYGYDVSRPLVFKEALVGAGQNLYYVDDDEVDFEKLINEPLPKVPRFSTFTAHWLAIEGVQPAIPQNPSPNDIKNILPINRGSMENMFSLINDEVKEDTNEEFTSTGPSVSSNISNQKQGLEVKPLVKHVLSRELQLYFDKIVEVLLNQEETKEAELLRNSALQSVRADPGLHQLVPYFIQFISETITKNLKNISLLSTMLELIYSLLMNESLFLEPYVHAIIPCILTLLLAKKIGNVDDELQKQQQLALRELSASLLERVIEDFGSSYSTLKPRITRTLLRAFVSVNNTTPGTQYGALLGLRGLGSEVIRIVVLGNVINWSSTFLEKLQQEDQVFLIDTLIETLRVLTKEGKLVKDMKTENGIDNERLKQRVGDLIADRIQACDDAQDIYWGIFFGEV
notes: Taf6, TFIID subunit of the yeast Komagataella phaffii (formerly Pichia pastoris); HEAT repeats (residues 213–486) and histone-fold domain modelled in the cryo-EM map; two copies in holo-TFIID; source: endogenous, K. phaffii nuclear extract; co-purified in TFIID by SBP-tagged Taf2 (streptavidin beads, sucrose gradient)
B6: Taf5, subunit of Komagataella phaffii TFIID (natural protein, UniProt F2QWD3 1-722, looked up)
chain: MKQEPGDSSDKSAPSGSITPQPKPPQQANVSNQQPQKPQQFSAADLNRIVLEYLNKKGYHKTESMLRMESSHIPAPPTNIPTPQTTNISRPTAPGRAPEYSDDPATIKRGYSILKSWCESSLDFYRPELEKFLYPVFVHCYLDLIARGYPSHAREFYDKFSKDHSVLHEYEISKLGGISLKEHLQENDVAKIFRSHKFKVLIGRTTFNLLLYFLNENDAVGGGVVLRLINQYIEPVITTEAIAVEREGELNLSEGIVELHTLNNTSIGGEQREISSVDAFNKKPVKLGKLQVDPEYSKELEAELKLKDEHEQAAQKKVSTTLLEEYRENFKVDPSDENNPSKDTLPLPLKSAQDLRNDIAMIQDSRAKIKLSAAQASLPSVCMYTFHNTNNDLTCLKFNDDSTMVASGFQDSFIKLWSIDGSPLRSLLKNDPYNQQNNDGVAVKGSRRLVGHSGAVYGVDFSPDNRYLISCSEDKTVRLWSLDTYTCLVSYKGHSSSVWDVKFSPMGHYFATASHDQTARLWSCDHIYPLRIFAGHLNDVDCVEFHPNSTYLFTGSSDKTARMWDIARGECVRVFMGHSGAINCLAVSPDGRWLASAGEDSVVCLWDISTGRRIKAMRGHGRSSIYSLAFSREGTVLVSTGADNSVRVWDVKKNTNSPSAQPEPINDVTAQGIQKKTEDLRRRKEIVATNDHMSVYFTKKTPVYTVHFTRRNLCLAGGVFGG
notes: Taf5, TFIID subunit of the yeast Komagataella phaffii (formerly Pichia pastoris); WD40 repeat and NTD (residues 99–243) modelled in the cryo-EM map; two copies in holo-TFIID; source: endogenous, K. phaffii nuclear extract; co-purified in TFIID by SBP-tagged Taf2 (streptavidin beads, sucrose gradient)

Tests used:
[1] = molecular target: B6; experiment: cross-linking; 50 µg purified TFIID, 3 mM BS3, 2 h at 25 °C; trypsin, SCX fractionation, Orbitrap Fusion MS; pLink and Nexus, 5% FDR; settings: both partners purified
[2] = molecular target: T1, Taf2 with C-terminal streptavidin-binding peptide tag, subunit of Komagataella phaffii TFIID (Komagataella phaffii, UniProt F2QRH9 1-1571); experiment: as above; settings: both partners purified
T1 construct: Taf2, TFIID subunit of the yeast Komagataella phaffii (formerly Pichia pastoris); residues 36 to 1194 modelled in the cryo-EM map; bait of the purification; also called SBP-tagged Taf2; source: K. phaffii strain with SBP-tagged Taf2, nuclear extract; purified (streptavidin beads, biotin elution, sucrose gradient)

[3] = molecular target: B1; experiment: as above; settings: both partners purified
[4] = molecular target: T1, Taf2 with C-terminal …; experiment: affinity purification with mass spectrometry; TFIID purified from K. phaffii nuclear extract by the SBP tag at the C-terminus of Taf2 (streptavidin beads, 250 mM potassium acetate, elution with 10 mM biotin, 10–30% sucrose gradient); SDS-PAGE and mass spectrometry of the purified complex; settings: partners not purified
[5] = molecular target: the molecule itself; experiment: cryo-EM structure; purified TFIID (0.4 µM) with two-fold excess of TFIIA and 2.5–3-fold excess of pGAP promoter DNA, cross-linked with 0.1% glutaraldehyde; focused refinement of the lobes (Taf2 lobe 4.5 Å, Twin lobe 4.8 Å); homology models docked

Row | binding result [1] | Binder | stoichiometry N [5] | further results
1 | binds | B1 |  | 
2 |  | B2 |  | binding result [2]: binds
3 | binds | B3 |  | binding result [3]: binds
4 |  | B4 |  | binding result [4]: binds
5 |  | B5 | 2 | 
6 |  | B6 | 2 | 
